Test [1] has as its target flotillin-associated rhodopsin from the marine SAG AG-319-B05 Pseudothioglobus (PsFAR) (Pseudothioglobus sp. (SAG AG-319-B05)). Put plainly: cryo-EM structure.
The target of test [2] is proteorhodopsin from the marine SAG AG-319-B05 Pseudothioglobus (PsPR) (Pseudothioglobus sp. (SAG AG-319-B05)). Description: cryo-EM structure.

A word on the stoichiometry N: it is a count of units in the complex or per binding partner.

In turn, “flotillin-associated rhodopsin from the marine SAG AG-319-B05 Pseudothioglobus (PsFAR) (natural protein)” had a stoichiometry N in test [1] of 5.
For the substance “proteorhodopsin from the marine SAG AG-319-B05 Pseudothioglobus (PsPR) (natural protein)”, in test [2], the stoichiometry N worked out at 5.
